The values below come from paper PMC5487730, “Functional Role of Lanthanides in Enzymatic Activity and Transcriptional Regulation of Pyrroloquinoline Quinone-Dependent Alcohol Dehydrogenases in Pseudomonas putida KT2440” (mBio, 2017).

The target in data set [1] is T1, PedE (Pseudomonas putida, UniProt Q88JH5).
T1 sequence (Q88JH5 34-631): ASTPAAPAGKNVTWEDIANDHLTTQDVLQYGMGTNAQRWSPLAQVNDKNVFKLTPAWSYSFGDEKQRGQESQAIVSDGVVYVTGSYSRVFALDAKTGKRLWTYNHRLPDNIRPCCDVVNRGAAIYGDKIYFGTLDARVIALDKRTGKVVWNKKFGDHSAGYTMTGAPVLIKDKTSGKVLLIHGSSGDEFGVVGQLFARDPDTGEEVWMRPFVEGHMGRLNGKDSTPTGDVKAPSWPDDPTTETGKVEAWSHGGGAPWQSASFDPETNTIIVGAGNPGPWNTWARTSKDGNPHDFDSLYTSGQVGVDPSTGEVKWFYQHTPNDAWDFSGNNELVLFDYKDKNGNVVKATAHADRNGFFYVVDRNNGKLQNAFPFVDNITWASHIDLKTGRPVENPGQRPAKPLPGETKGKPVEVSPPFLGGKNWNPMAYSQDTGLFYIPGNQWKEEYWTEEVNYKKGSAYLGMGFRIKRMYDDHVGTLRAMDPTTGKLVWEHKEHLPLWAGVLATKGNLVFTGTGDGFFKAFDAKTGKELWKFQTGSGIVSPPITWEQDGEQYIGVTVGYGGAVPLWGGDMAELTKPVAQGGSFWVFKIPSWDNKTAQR
As to the kind of experiment: DCPIP/PMS dye-linked activity titrated with PQQ, one-site binding fit. Format: biochemical. Particulars: 10 mM ethanol, 1 mM CaCl2, 25 mM imidazole, 100 mM Tris HCl pH 8, 30°C preincubation.

In data set [2] the target is T2, PedH (Pseudomonas putida, UniProt Q88JH0).
T2 sequence (Q88JH0 28-595): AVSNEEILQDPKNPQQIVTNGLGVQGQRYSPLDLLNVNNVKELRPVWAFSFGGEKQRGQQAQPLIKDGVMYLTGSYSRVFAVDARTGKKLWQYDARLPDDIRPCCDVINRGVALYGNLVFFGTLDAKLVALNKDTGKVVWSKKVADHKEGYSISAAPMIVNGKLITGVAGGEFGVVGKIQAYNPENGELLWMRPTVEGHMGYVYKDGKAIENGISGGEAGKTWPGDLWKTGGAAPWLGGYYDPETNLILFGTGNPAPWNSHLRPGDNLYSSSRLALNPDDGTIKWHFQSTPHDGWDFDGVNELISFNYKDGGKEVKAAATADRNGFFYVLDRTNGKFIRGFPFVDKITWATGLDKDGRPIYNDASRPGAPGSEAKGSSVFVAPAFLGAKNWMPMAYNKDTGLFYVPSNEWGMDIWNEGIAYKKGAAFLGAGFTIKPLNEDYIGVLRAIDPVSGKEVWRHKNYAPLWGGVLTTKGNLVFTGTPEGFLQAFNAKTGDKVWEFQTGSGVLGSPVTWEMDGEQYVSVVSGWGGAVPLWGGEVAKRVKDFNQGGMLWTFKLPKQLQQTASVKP
Described as above. Particulars: 10 mM ethanol, 1 µM PrCl3, 25 mM imidazole, 100 mM Tris HCl pH 8, 30°C preincubation. Format: biochemical.

Substrate in data set [3]: CCO
As to the kind of experiment: purified protein. The conditions noted are these: 1 µM PrCl3, 1 µM PQQ, 25 mM imidazole, 500 µM PMS, 150 µM DCPIP, 100 mM Tris HCl pH 8, 30°C preincubation.

Substrate in data set [4]: CC=O
The data set is described as follows: DCPIP/PMS dye-linked colorimetric assay, Michaelis-Menten fit. Format: biochemical, Pseudomonas putida. The conditions noted are these: 1 µM PrCl3, 1 µM PQQ, 25 mM imidazole, 500 µM PMS, 150 µM DCPIP, 100 mM Tris HCl pH 8, 30°C preincubation.

Substrate in data set [5]: OCCc1ccccc1
The data set is described as above. Format: biochemical, Pseudomonas putida. Particulars: 1 µM PrCl3, 1 µM PQQ, 25 mM imidazole, 500 µM PMS, 150 µM DCPIP, 100 mM Tris HCl pH 8, 30°C preincubation.

By Kd is commonly meant a measure of binding affinity in units of concentration. `O=C(O)c1cc(C(=O)O)c2c(n1)C(=O)C(=O)c1cc(C(=O)O)[nH]c1-2` [PQQ]: the Kd came out at 3.5 µM in data set [1] and 0.041 µM in data set [2].

B1: PedH (Pseudomonas putida KT2440) (protein)
chain: T2 sequence (Q88JH0 28-595)
As a reminder, the Km is the concentration of substrate that gives half-maximal velocity. For the molecule B1, the Km in data set [3] came out at 177 µM; in data set [4], 2261 ± 457 µM; in data set [5], 329 ± 22 µM.
